Experimental data reported in US20140315251A1.

How the values were obtained:
[1] = target: Recombinant canine IL-31 produced in CHO cells (canine); assay: cell-based or functional assay
[2] = target: Recombinant canine IL-31 produced in CHO cells (canine); assay: SPR (Biacore), IL-31 amine-coupled to the chip, mAb in solution, 1:1 fit
[3] = target: Recombinant canine IL-31 produced in CHO cells (canine)
[4] = target: Recombinant canine IL-31 produced in CHO cells (canine); assay: SPR (Biacore), IL-31 amine-coupled to the chip, mAb in solution, 1:1 fit; Biacore affinity (SPR); weak, about 0.5 uM; not active in the DH82 pSTAT assay

Sequence of Recombinant canine IL-31 produced in CHO cells (canine) (chain, as listed by the source limits assumed, form in doubt): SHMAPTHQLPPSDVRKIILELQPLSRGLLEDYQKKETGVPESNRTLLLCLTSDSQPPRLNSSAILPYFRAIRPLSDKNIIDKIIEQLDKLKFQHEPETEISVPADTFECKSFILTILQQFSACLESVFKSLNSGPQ

DH82 pSTAT Assay, Co-incubation IC50 [1] [µg/ml] | DH82 pSTAT Assay, Pre-treatment IC50 [1] [µg/ml] | Kd [2] [pM] | IC50 (inhibition of canine IL-31 induced pSTAT signaling in canine DH82 monocytes) [3] [µg/mL] | Kd [4] [pM] | Binder
1.73 | 2.28 | 1.01 | – | – | Mouse 34D03 (antibody, V domains shown) VH: EVQLVESGGDLVKPGGSLKLSCAASGFSFSNYGMSWVRQTPDKRLEWVATISYGGSYTYYPDNIKGRFTISRDNAKNTLYLQMSSLKSEDTAMYYCVRGYGYDTMDYWGQGTSVTVSS VL: DILLTQSPASLAVSLGQRAIISCKASQSVSFAGTGLMHWYQQKPGQQPKLLIYRASNLEAGVPTRFSGSGSRTDFTLNIHPVEEEDAATYFCQQSREYPWTFGGGTKLEIK
1.28 | 1.08 | 4.65 | – | – | Chimeric 34D03 (antibody, V domains shown) VH: EVQLVESGGDLVKPGGSLKLSCAASGFSFSNYGMSWVRQTPDKRLEWVATISYGGSYTYYPDNIKGRFTISRDNAKNTLYLQMSSLKSEDTAMYYCVRGYGYDTMDYWGQGTSVTVSS VL: DILLTQSPASLAVSLGQRAIISCKASQSVSFAGTGLMHWYQQKPGQQPKLLIYRASNLEAGVPTRFSGSGSRTDFTLNIHPVEEEDAATYFCQQSREYPWTFGGGTKLEIKR
1.61 | 2.28 | 0.893 | – | – | Mouse 11E12 (antibody, V domains shown) VH: QVQLQQSGAELVKPGASVKLSCKASGYTFKYYDINWVRQRPEQGLEWIGWIFPGDGGTKYNETFKGKATLTTDKSSSTAYMQLSRLTSEDSAVYFCARGGTSVIRDAMDYWGQGTSVTVSS VL: DIVLTQSPASLAVSLGQRATISCRASESVDNYGISFMHWYQQKPGQPPKLLIYRASNLESGIPARFSGSGSRTDFTLTINPVETDDVATYYCQQSNKDPLTFGAGTKLELK
2.67 | 3.35 | 4.97 | – | – | 11E12 Heterochimera (antibody, V domains shown) VH: EVQLVQSGAEVKKPGASVKVSCKTSGYTFKYYDINWVRQAPGAGLDWMGWIFPGDGGTKYNETFKGRVTLTADTSTSTAYMELSSLRAGDIAVYYCARGGTSVIRDAMDYWGQGTLVTVSS VL: DIVLTQSPASLAVSLGQRATISCRASESVDNYGISFMHWYQQKPGQPPKLLIYRASNLESGIPARFSGSGSRTDFTLTINPVETDDVATYYCQQSNKDPLTFGAGTKLELKR
2.7 | 5.31 | 147 | – | – | Caninized 11E12 FW2 (antibody, V domains shown) VH: EVQLVQSGAEVKKPGASVKVSCKTSGYTFKYYDINWVRQAPGAGLDWMGWIFPGDGGTKYNETFKGRVTLTADTSTSTAYMELSSLRAGDIAVYYCARGGTSVIRDAMDYWGQGTLVTVSS VL: DIVMTQTPLSLSVSPGEPASISCRASESVDNYGISFMHWYQQKPGQPPKLLIYRASNLESGVPDRFSGSGSGTDFTLRISRVEADDAGVYYCQQSNKDPLTFGAGTKLEIKR
5.49 | 5.18 | 5.16 | – | – | Caninized 11E12 13 (antibody, V domains shown) VH: EVQLVQSGAEVKKPGASVKVSCKTSGYTFKYYDINWVRQAPGAGLDWMGWIFPGDGGTKYNETFKGRVTLTADTSTSTAYMELSSLRAGDIAVYYCARGGTSVIRDAMDYWGQGTLVTVSS VL: DIVMTQTPLSLSVSPGEPASISCRASESVDNYGISFMHWFQQKPGQSPQLLIYRASNLESGVPDRFSGSGSGTDFTLRISRVEADDAGVYYCQQSNKDPLTFGAGTKLEIKR
1.76 | 3.46 | 7.24 | – | – | Mouse 19D07 (antibody, V domains shown) VH: EVKLVESGGGLVKPGGSLKLSCAASGFAFSSYDMSWVRQIPEKRLEWVATITSGGGYTYSADSVKGRFTISRDNARNTLYLQMSSLRSEDTAVYYCARQNWVVGLAYWGQGTLVTVSA VL: DIVMSQSPSSLSVSAGDKVTMSCKSSQSLLNSGNQKNYLAWYQQKPWQPPKLLIYGASTRESGVPDRFTGSGSGTDFTLTISSVQAEDLAVYYCQNDYSYPYTFGGGTKLEIK
2.42 | 2.25 | 29.1 | 2.29 | – | Caninized 34D03 (antibody, V domains shown) VH: EVQLVESGGDLVKPGGSLRLSCVASGFTFSNYGMSWVRQAPGKGLQWVATISYGGSYTYYPDNIKGRFTISRDNAKNTLYLQMNSLRAEDTAMYYCVRGYGYDTMDYWGQGTLVTVSS VL: EIVMTQSPASLSLSQEEKVTITCKASQSVSFAGTGLMHWYQQKPGQAPKLLIYRASNLEAGVPSRFSGSGSGTDFSFTISSLEPEDVAVYYCQQSREYPWTFGQGTKLEIKR
1.48 | 1.57 | 0.268 | – | – | Chimeric 11E12 (antibody, V domains shown) VH: QVQLQQSGAELVKPGASVKLSCKASGYTFKYYDINWVRQRPEQGLEWIGWIFPGDGGTKYNETFKGKATLTTDKSSSTAYMQLSRLTSEDSAVYFCARGGTSVIRDAMDYWGQGTSVTVSS VL: DIVLTQSPASLAVSLGQRATISCRASESVDNYGISFMHWYQQKPGQPPKLLIYRASNLESGIPARFSGSGSRTDFTLTINPVETDDVATYYCQQSNKDPLTFGAGTKLELKR
1.92 | 1.33 | 0.515 | – | – | Chimeric 19D07 (antibody, V domains shown) VH: EVKLVESGGGLVKPGGSLKLSCAASGFAFSSYDMSWVRQIPEKRLEWVATITSGGGYTYSADSVKGRFTISRDNARNTLYLQMSSLRSEDTAVYYCARQNWVVGLAYWGQGTLVTVSA VL: DIVMSQSPSSLSVSAGDKVTMSCKSSQSLLNSGNQKNYLAWYQQKPWQPPKLLIYGASTRESGVPDRFTGSGSGTDFTLTISSVQAEDLAVYYCQNDYSYPYTFGGGTKLEIKR
– | – | – | 2.41 | – | Felinized 34D03 (antibody, V domains shown) VH: DVQLVESGGDLVKPGGSLRLTCVASGFTYSNYGMSWVRQAPGKGLQWVATISYGGSYTYYPDNIKGRFTISRDNAKNTLYLQMNSLKTEDTATYYCVRGYGYDTMDYWGQGTLVTVSS VL: EIQMTQSPSSLSASPGDRVTITCKASQSVSFAGTGLMHWYQQKPGKVPKLLIYRASNLEAGVPSRFSGSGSGTDFTLTISSLEPEDAATYYCQQSREYPWTFGQGTKLEIKR
– | – | 923 | – | – | Caninized 19D07 (antibody, V domains shown) VH: EVQLVESGGDLVKPGGSLRLSCVASGFTFSSYDMSWVRQAPGKGLQWVATITSGGGYTYSADSVKGRFTISRDNARNTLYLQMNSLRSEDTAVYYCARQNWVVGLAYWGQGTLVTVSS VL: EIVMTQSPASLSLSQEEKVTITCKSSQSLLNSGNQKNYLAWYQQKPGQAPKLLIYGASTRESGVPSRFSGSGSGTDFSFTISSLEPEDVAVYYCQNDYSYPYTFGQGTKLEIKR
– | – | – | – | 506000 | Caninized 11E12 (antibody, V domains shown) VH: EVQLVQSGAEVKKPGASVKVSCKTSGYTFKYYDINWVRQAPGAGLDWMGWIFPGDGGTKYNETFKGRVTLTADTSTSTAYMELSSLRAGDIAVYYCARGGTSVIRDAMDYWGQGTLVTVSS VL: DIVMTQTPLSLSVSPGEPASISCRASESVDNYGISFMHWFQQKPGQSPQRLIYRASNLESGVPDRFSGSGSGTDFTLRISRVEADDAGVYYCQQSNKDPLTFGAGTKLEIKR
